Measured values published in article PMC7898959, “Identification of an amino-terminus determinant critical for ryanodine receptor/Ca^2+ release channel function” (Cardiovascular Research, 2020).

Target: the molecule itself
Assay: cross-linking; HEK293 cell homogenate (20 μg) with glutaraldehyde (0.0025% or 260 μmol/L) for 0 min to 1 h under reducing (10 mM DTT) conditions; SDS-PAGE and blot with Ab^cMyc; tetramer formation T = ODT/(ODT + ODM) × 100 by densitometry

B1: NT^Δβ23–β24 (RyR2 residues 1–906, residues 399–401 removed) (domain or fragment, human, UniProt Q92736 1-906, looked up)
chain: MADGGEGEDEIQFLRTDDEVVLQCTATIHKEQQKLCLAAEGFGNRLCFLESTSNSKNVPPDLSICTFVLEQSLSVRALQEMLANTVEKSEGQVDVEKWKFMMKTAQGGGHRTLLYGHAILLRHSYSGMYLCCLSTSRSSTDKLAFDVGLQEDTTGEACWWTIHPASKQRSEGEKVRVGDDLILVSVSSERYLHLSYGNGSLHVDAAFQQTLWSVAPISSGSEAAQGYLIGGDVLRLLHGHMDECLTVPSGEHGEEQRRTVHYEGGAVSVHARSLWRLETLRVAWSGSHIRWGQPFRLRHVTTGKYLSLMEDKNLLLMDKEKADVKSTAFTFRSSKEKLDVGVRKEVDGMGTSEIKYGDSVCYIQHVDTGLWLTYQSVDVKSVRMGSIQRKAIMHHEGHGISLSRSQHEESRTARVIRSTVFLFNRFIRGLDALSKKAKASTVDLPIESVSLSLQDLIGYFHPPDEHLEHEDKQNRLRALKNRQNLFQEEGMINLVLECIDRLHVYSSAAHFADVAGREAGESWKSILNSLYELLAALIRGNRKNCAQFSGSLDWLISRLERLEASSGILEVLHCVLVESPEALNIIKEGHIKSIISLLDKHGRNHKVLDVLCSLCVCHGVAVRSNQHLICDNLLPGRDLLLQTRLVNHVSSMRPNIFLGVSEGSAQYKKWYYELMVDHTEPFVTAEATHLRVGWASTEGYSPYPGGGEEWGGNGVGDDLFSYGFDGLHLWSGCIARTVSSPNQHLLRTDDVISCCLDLSAPSISFRINGQPVQGMFENFNIDGLFFPVVSFSAGIKVRFLLGGRHGEFKFLPPPGYAPCYEAVLPKEKLKVEHSREYKQERTYTRDLLGPTVSLTQAAFTPIPVDTSQIVLPPHLERIREKLAENIHELWVMNKIELGWQYGP
notes: cardiac ryanodine receptor (RyR2), N-terminus, residues 1-906, with residues 399-401 removed; source: HEK293, transiently transfected, in cell homogenate; not shown: cMyc, N-terminal, kept
B1 was tested, and the “stoichiometry N” value was 4.
